Reference: patent publication US20260242478A1 (published 2026)
Where no end group is shown, it is not given here.

Tests used:
[1] = biological target: T1, Anti-CD28 Fab (SEQ ID NOs: 696, 697); assay: phage ELISA on captured anti-CD28 Fab; competitor: CD28 antigen pre-incubated in the well
T1 construct: In the phage ELISA the Fab was biotinylated and captured on neutravidin coated plates
T1 sequence (VH, as listed by the source, chain 1 of 2): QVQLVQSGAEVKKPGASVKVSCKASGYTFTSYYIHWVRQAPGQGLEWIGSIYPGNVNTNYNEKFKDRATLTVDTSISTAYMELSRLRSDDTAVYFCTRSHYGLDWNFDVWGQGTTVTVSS
T1 sequence (VL, as listed by the source, chain 2 of 2): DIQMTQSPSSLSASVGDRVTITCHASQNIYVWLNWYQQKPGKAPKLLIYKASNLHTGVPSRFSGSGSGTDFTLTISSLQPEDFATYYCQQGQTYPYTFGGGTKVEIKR
Method: (§1) After panning, phage infected bacteria were plated out and colonies picked into 96 well blocks. Clonal phage was then amplified and separated from bacterial cells via centrifugation.
(§2) Clonal phage were harvested as crude supematants and screened via standard ELISAs. […] Prior to the addition of clonal phage, wells were incubated with blocking buffer and CD28 antigen or blocking buffer alone. Without washing or aspirating, clonal phage supematants were then added to the wells and incubated for a short time. Wells were then washed followed by detection of bound phage using a horse radish conjugated anti-M13 antibody. Clonal phage of interest were then sent for sequence analysis.

[2] = biological target: T1, Anti-CD28 Fab (SEQ ID NOs: 696, 697); assay: phage ELISA; biotinylated anti-CD28 Fab on neutravidin plate, bound phage detected with anti-M13-HRP
Method: as §1, §2

[3] = biological target: T2, Anti-CD28 Fab (SEQ ID NOs: 696, 697); assay: phage ELISA; as above with CD28 antigen as competitor pre-incubated on the Fab coated wells
T2 construct: Biotinylated and captured on neutravidin coated plates in the phage ELISA
T2 sequence (VH, as listed by the source, chain 1 of 2): as the sequence (VH, as listed by the source, chain 1 of 2) above
T2 sequence (VL, as listed by the source, chain 2 of 2): as the sequence (VL, as listed by the source, chain 2 of 2) above
Method: as §1, §2

[4] = biological target: T2, Anti-CD28 Fab (SEQ ID NOs: 696, 697); assay: phage ELISA; biotinylated anti-CD28 Fab on neutravidin plates, clonal phage supernatant, anti-M13 HRP detection
Method: as §1, §2

[5] = biological target: T3, Anti-CD28 Fab (SEQ ID NOs: 696, 697); assay: phage binding ELISA on Fab coated plate; wells pre-incubated with CD28 antigen as competitor
T3 construct: In the phage ELISA the Fab was biotinylated and captured on neutravidin coated plates
T3 sequence (VH, as listed by the source, chain 1 of 2): as the sequence (VH, as listed by the source, chain 1 of 2) above
T3 sequence (VL, as listed by the source, chain 2 of 2): as the sequence (VL, as listed by the source, chain 2 of 2) above
Method: as §1, §2

[6] = biological target: T3, Anti-CD28 Fab (SEQ ID NOs: 696, 697); assay: phage binding ELISA; biotinylated Fab on neutravidin plate, clonal phage supernatant, anti-M13 HRP detection;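 note: phage from clones picked after panning, added to wells pre-incubated with blocking buffer with or without CD28 antigen, then briefly incubated and washed before detection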
Method: as §1, §2

[7] = biological target: Anti-CD28 Fab (SEQ ID NOs: 696, 697); assay: phage binding ELISA on captured anti-CD28 Fab; competitor: CD28 antigen preincubated in the wells
Target sequence in this assay (VH, as listed by the source, chain 1 of 2): as the sequence (VH, as listed by the source, chain 1 of 2) above
Target sequence in this assay (VL, as listed by the source, chain 2 of 2): as the sequence (VL, as listed by the source, chain 2 of 2) above

[8] = biological target: Anti-CD28 Fab (SEQ ID NOs: 696, 697); assay: phage binding ELISA; biotinylated anti-CD28 Fab on neutravidin plate, clonal phage supernatant, anti-M13 HRP detection
Target sequence in this assay (VH, as listed by the source, chain 1 of 2): as the sequence (VH, as listed by the source, chain 1 of 2) above
Target sequence in this assay (VL, as listed by the source, chain 2 of 2): as the sequence (VL, as listed by the source, chain 2 of 2) above

| Binder | Anti-CD28 Fab signal in the presence of CD28 [1] | Anti-CD28 Fab signal (phage binding ELISA) [2] | Phage binding ELISA, Anti-CD28 Fab signal in the presence of CD28 [3] | Phage binding ELISA, Anti-CD28 Fab signal [4] | Anti-CD28 Fab signal in the presence of CD28 [5] | Anti-CD28 Fab (SEQ ID NOs: 696, 697) signal [6] | further results |
| --- | --- | --- | --- | --- | --- | --- | --- |
| YCDGHLPEYFLKCL (cysteine pairing not given here; also: fused to phage pIII, not shown: pIII filament protein of the bacteriophage to which the peptide is fused) [Phage-886] | 0.11 | 1.71 |  |  |  |  |  |
| YCDGHSEQYMSKCL (Tested as clonal phage supernatant) [Phage-901 (Peptide-87 library clone, YCDGHSEQYMSKCL)] |  |  | 0.07 | 1.68 |  |  |  |
| YCAGHTQEYMYKCL (cysteine pairing not given here; also: fused to phage pIII, not shown: pIII filament protein of the bacteriophage to which the peptide is fused) [Phage-888] | 0.05 | 1.7 |  |  |  |  |  |
| YCDGHAEEYLWKCL (cysteine pairing not given here; also: fused to phage pIII coat protein (sequence and linker not given here), not shown: pIII coat protein of the bacteriophage to which the peptide is fused) [Phage-868] |  |  |  |  | 0.06 | 1.73 |  |
| YCDGHLPVYLEKCL (Tested as clonal phage supernatant) [Phage-894 (Peptide-87 library clone, YCDGHLPVYLEKCL)] |  |  | 0.06 | 1.69 |  |  |  |
| YCDGHLQIYMHKCL (cysteine pairing not given here; also: fused to phage pIII, not shown: pIII filament protein of the bacteriophage to which the peptide is fused) [Phage-884] | 0.1 | 1.71 |  |  |  |  |  |
| YCDGHSLAYIAKCL (cysteine pairing not given here; also: fused to phage pIII, not shown: pIII filament protein of the bacteriophage to which the peptide is fused) [Phage-887] | 0.06 | 1.7 |  |  |  |  |  |
| YCDGHTQAYIQKCL (not shown: pIII coat protein of the bacteriophage to which the peptide is fused) [Phage-871] |  |  |  |  | 0.06 | 1.73 |  |
| YCDGHSPAYIWKCL (Tested as clonal phage supernatant) [Phage-900 (Peptide-87 library clone, YCDGHSPAYIWKCL)] |  |  | 0.08 | 1.68 |  |  |  |
| YCEGHSAEYMQKCL (Tested as clonal phage supernatant) [Phage-893 (Peptide-87 library clone, YCEGHSAEYMQKCL)] |  |  | 0.29 | 1.7 |  |  |  |
| YCDGHLSEYMAKCL (not shown: pIII coat protein of the bacteriophage to which the peptide is fused) [Phage-874] |  |  |  |  | 0.08 | 1.72 |  |
| YCDGHAIEYMAKCL (Tested as clonal phage supernatant) [Phage-896 (Peptide-87 library clone, YCDGHAIEYMAKCL)] |  |  | 0.08 | 1.69 |  |  |  |
| YCAGHLQEYMQKCL (Tested as clonal phage supernatant) [Phage-895 (Peptide-87 library clone, YCAGHLQEYMQKCL)] |  |  | 0.07 | 1.69 |  |  |  |
| YCDGHAKEYMDKCL (Tested as clonal phage supernatant) [Phage-902 (Peptide-87 library clone, YCDGHAKEYMDKCL)] |  |  | 0.08 | 1.68 |  |  |  |
| YCDGHSTEYMEKCL (Tested as clonal phage supernatant) [Phage-903 (Peptide-87 library clone, YCDGHSTEYMEKCL)] |  |  | 0.08 | 1.68 |  |  |  |
| YCEGHSVQYMQKCL (not shown: pIII filament protein of the bacteriophage to which the peptide is fused) [Phage-879] | 0.06 | 1.71 |  |  |  |  |  |
| YCEGHSEMYMKKCL (not shown: pIII coat protein of the bacteriophage to which the peptide is fused) [Phage-875] |  |  |  |  | 0.07 | 1.72 |  |
| YCDGHSWEYMEKCL (cysteine pairing not given here; also: fused to phage pIII, not shown: pIII filament protein of the bacteriophage to which the peptide is fused) [Phage-891] | 0.12 | 1.7 |  |  |  |  |  |
| YCDGHSREYMVKCL (cysteine pairing not given here; also: fused to phage pIII, not shown: pIII filament protein of the bacteriophage to which the peptide is fused) [Phage-881] | 0.06 | 1.71 |  |  |  |  |  |
| YCAGHSMEYMAKCL (cysteine pairing not given here; also: fused to phage pIII, not shown: pIII filament protein of the bacteriophage to which the peptide is fused) [Phage-885] | 0.07 | 1.71 |  |  |  |  |  |

| Binder | Anti-CD28 Fab signal in the presence of CD28 [1] | Anti-CD28 Fab signal (phage binding ELISA) [2] | Phage binding ELISA, Anti-CD28 Fab signal in the presence of CD28 [3] | Phage binding ELISA, Anti-CD28 Fab signal [4] | Anti-CD28 Fab signal in the presence of CD28 [5] | Anti-CD28 Fab (SEQ ID NOs: 696, 697) signal [6] | further results |
| --- | --- | --- | --- | --- | --- | --- | --- |
| YCAGHSAEYMWKCL (cysteine pairing not given here; also: fused to phage pIII, not shown: pIII filament protein of the bacteriophage to which the peptide is fused) [Phage-883] | 0.11 | 1.71 |  |  |  |  |  |
| YCAGHLPEYLDKCL (cysteine pairing not given here; also: fused to phage pIII, not shown: pIII filament protein of the bacteriophage to which the peptide is fused) [Phage-880] | 0.07 | 1.71 |  |  |  |  |  |
| YCDGHAWEYMTKCL (Tested as clonal phage supernatant) [Phage-898 (Peptide-87 library clone, YCDGHAWEYMTKCL)] |  |  | 0.35 | 1.69 |  |  |  |
| YCDGHSSLYMHKCL (Tested as clonal phage supernatant) [Phage-904 (Peptide-87 library clone, YCDGHSSLYMHKCL)] |  |  | 0.07 | 1.67 |  |  |  |
| YCEGHSPWYMNKCL (Tested as clonal phage supernatant) [Phage-899 (Peptide-87 library clone, YCEGHSPWYMNKCL)] |  |  | 0.06 | 1.68 |  |  |  |
| YCAGHSAEYMAKCL (not shown: pIII coat protein of the bacteriophage to which the peptide is fused) [Phage-869] |  |  |  |  | 0.07 | 1.73 |  |
| YCEGHLPQYFMKCL (cysteine pairing not given here; also: fused to phage pIII, not shown: pIII filament protein of the bacteriophage to which the peptide is fused) [Phage-890] | 0.07 | 1.7 |  |  |  |  |  |
| YCQGHLPVYMEKCL (not shown: pIII coat protein of the bacteriophage to which the peptide is fused) [Phage-877] |  |  |  |  | 0.06 | 1.72 |  |
| YCDGHLQIYLWKCL (not shown: pIII coat protein of the bacteriophage to which the peptide is fused) [Phage-876] |  |  |  |  | 0.07 | 1.72 |  |
| YCDGHSGVYMWKCL (not shown: pIII coat protein of the bacteriophage to which the peptide is fused) [Phage-870] |  |  |  |  | 0.08 | 1.73 |  |
| YCDGHSWQYISKCL (Peptide-87 library clone, tested as clonal phage supernatant with the peptide fused to the pIII filament of the bacteriophage) [Phage-905] |  |  |  |  |  |  | Anti-CD28 Fab signal in the presence of CD28 (phage binding ELISA) [7]: 0.05; Anti-CD28 Fab signal (phage binding ELISA) [8]: 1.67 |
| YCDGHAIQYIGKCL (not shown: pIII coat protein of the bacteriophage to which the peptide is fused) [Phage-872] |  |  |  |  | 0.09 | 1.72 |  |
| YCDGHAAEFMMKCL (not shown: pIII coat protein of the bacteriophage to which the peptide is fused) [Phage-873] |  |  |  |  | 0.06 | 1.72 |  |
| YCDGHLVEYRGKCL (cysteine pairing not given here; also: fused to phage pIII, not shown: pIII filament protein of the bacteriophage to which the peptide is fused) [Phage-882] | 0.07 | 1.71 |  |  |  |  |  |
| YCEGHAQEYMSKCL (cysteine pairing not given here; also: fused to phage pIII, not shown: pIII filament protein of the bacteriophage to which the peptide is fused) [Phage-889] | 0.08 | 1.7 |  |  |  |  |  |
| YCDGHAAEYMDKCL (not shown: pIII coat protein of the bacteriophage to which the peptide is fused) [Phage-878] |  |  |  |  | 0.07 | 1.72 |  |
| YCSGHLPEYMGKCL (cysteine pairing not given here; also: fused to phage pIII coat protein (sequence and linker not given here), not shown: pIII coat protein of the bacteriophage to which the peptide is fused) [Phage-867] |  |  |  |  | 0.1 | 1.73 |  |
| YCEGHKPEYMQKCL (Tested as clonal phage supernatant) [Phage-897 (Peptide-87 library clone, YCEGHKPEYMQKCL)] |  |  | 0.06 | 1.69 |  |  |  |
| YCAGHSPLYMLKCL (Tested as clonal phage supernatant) [Phage-892 (Peptide-87 library clone, YCAGHSPLYMLKCL)] |  |  | 0.1 | 1.7 |  |  |  |
